Assay results as given in patent publication US20250177505A1, “CANCER VACCINE COMPRISING EPITOPE OF C-MET AND EPITOPE OF HIF1ALPHA, AND USE THEREOF” (KOREA UNIVERSITY RESEARCH AND BUSINESS FOUNDATION, priority 2022, published 2025).
Entries after “also recorded” stand apart in the source; their conditions may differ.

Tests used:
M6-bone cells = test: Western blot of IFN-γ-treated cells; format: cell-based, mouse; conditions: 100 ng/ml IFN-γ, 18 hours
Protocol: M6 and M6-bone cells were stimulated with 100 ng/ml recombinant mouse IFN-γ and cultured in a medium containing 1% FBS for 18 hours. The cells were lysed in a buffered mixture of a PRO-PREPTM protein extraction solution (iNtRON Biotechnology, 17081) and a phosphatase inhibitor cocktail (Gen DEPOT, p3200-001). Protein concentration was measured using the Bradford assay (Bio-rad, 500-0006, Hercules, CA, USA). 30 μg of the protein was separated by SDS-polyacrylamide gel electrophoresis and transferred to a PVDF membrane (10600023), and then the membrane was blocked with Tris-buffered saline containing 0.05% Tween 20 and 5% non-fat milk powder for 1 hour. The PVDF membrane was incubated overnight at 4° C. with primary antibodies. HIF1α (NB100-105, Novusbio), c-MET, Akt (Cat #9272), and p-Akt (Cat #9271) antibodies were purchased from Cell Signaling Technology (Beverly, MA, USA), and β-actin (Cat #A5316) was purchased from Sigma (Saint Louis, MO, USA). Subsequently, a horseradish peroxidase-conjugated secondary antibody was cultured at room temperature for 1 hour. Immunoreactive bands were detected with a chemiluminescent reagent (Cat #RPN2106).

[1] = system: bone marrow monocytes (BMMs); test: Osteoclastogenesis analysis in bone marrow monocytes; format: cell-based, C3(1)-Tag mice; conditions: BMM with M-CSF 30 ng/mL, RANKL 100 ng/mL, IFN-γ 50, 100 ng/mL; vs positive control
Protocol: Primary mouse bone marrow monocytes (BMMs) were isolated from the hind limb bones (two femurs and two tibiae) of 4 to 8 week-old C3(1)-Tag mice. The mouse BMMs were flushed into a 15 ml tube via 8 ml of a serum-free 2 mM EDTA α-MEM medium. A Lymphocyte Separation Medium (LSM; MP Biomedicals; Catalog No. 50494) was dispensed into a new tube, 8 ml of the flushed BMMs were gently added thereon and centrifuged at 1600 rpm for 20 minutes at room temperature. The isolated BMMs were inoculated at 3×10^5 cells/well in a 48-well plate with 0.5 mL of a medium per well and incubated in α-MEM containing 10% FBS and 1% antibiotics.
BMMs in a negative control group were treated with M-CSF (30 ng/mL), BMMs in a positive control group were treated with M-CSF and RANKL (100 ng/mL), and BMMs in an experimental group were stimulated by treatment with M-CSF, RANKL, and IFN-γ(50, 100 ng/mL). On days 1, 3, 5, and 7 of culture, the medium was replaced, and each experimental group was treated with M-CSF, RANKL, and IFN-γ. After 9 days of culture, staining was performed using a TRAP staining kit (KT-008, KAMIYA biomedical company, Seattle, WA, USA) after fixing the cells with 10% formalin. For each well, TRAP-positive (TRAP^+) multinucleated cells (TRAP^+ MNC) were counted. All the experiments were independently repeated three times.

B1: IFN-γ: recombinant mouse IFN-γ, key cytokine of T-helper type 1 immunity (protein, UniProt P01580 23-155, looked up)
Interferon gamma: HGTVIESLESLNNYFNSSGIDVEEKSLFLDIWRNWQKDGDMKILQSQIISFYLRLFEVLKDNQAISNNISVIESHLITTFFSNSKAKKDAFMSIAKFEVNNPQVQRQAFNELIRVVHQLLPESSLRKRKRSRC
Expression of c-MET (M6-bone cells): decreased
Expression of p-Akt (M6-bone cells): decreased
osteoclastogenesis in vitro [1]: completely inhibited; also recorded: inhibits
